# Results as given in PMC6736635.
# Read-outs that look alike come from different tables or passages of the source.
# B1: G4 24 RNA (structured_RNA)
# RNA: UUAGGGUUAGGGUUAGGGUUAGGG
# Assays:
# Assay in all cases: fluorescence anisotropy
# PRC2-AEBP2 mt5 = PRC2-AEBP2 mt5 (Homo sapiens, UniProt Q15910;Q15022;O75530;Q09028;Q6ZN18 1-746;1-739;1-441;1-425;1-517, Y133A;T144A;F145A;Y153A;Y308A)
# PRC2-AEBP2 mt4 = PRC2-AEBP2 mt4 (Homo sapiens, UniProt Q15910;Q15022;O75530;Q09028;Q6ZN18 1-746;1-739;1-441;1-425;1-517, K656A)
# PRC2-AEBP2 mt1 = PRC2-AEBP2 mt1 (Homo sapiens, UniProt Q15910;Q15022;O75530;Q09028;Q6ZN18 1-746;1-739;1-441;1-425;1-517, R27A;R31A;F165A;R355A)
# PRC2-MTF2-EPOP = PRC2-MTF2-EPOP (Homo sapiens, UniProt Q15910;Q15022;O75530;Q09028;Q9Y483;A6NHQ4 1-746;1-739;1-441;1-425;1-593;1-379)
# PRC2-AEBP2 [1] = target: T1, PRC2-AEBP2 (Homo sapiens, UniProt Q15910;Q15022;O75530;Q09028;Q6ZN18 1-746;1-739;1-441;1-425;1-517)
# PRC2-PHF19 = PRC2-PHF19 (Homo sapiens, UniProt Q15910;Q15022;O75530;Q09028;Q5T6S3 1-746;1-739;1-441;1-425;1-580)
# PRC2-MTF2 = PRC2-MTF2 (Homo sapiens, UniProt Q15910;Q15022;O75530;Q09028;Q9Y483 1-746;1-739;1-441;1-425;1-593)
# [2] = target: PRC2 core (EZH2-EED-SUZ12-RBBP4) (Homo sapiens, UniProt Q15910;Q15022;O75530;Q09028 1-746;1-739;1-441;1-425)
# PRC2-AEBP2 mt2 = PRC2-AEBP2 mt2 (Homo sapiens, UniProt Q15910;Q15022;O75530;Q09028;Q6ZN18 1-746;1-739;1-441;1-425;1-517, H129A;K156A;H158A;G159A;R161A;R306A)
# PRC2-AEBP2 mt3 = PRC2-AEBP2 mt3 (Homo sapiens, UniProt Q15910;Q15022;O75530;Q09028;Q6ZN18 1-746;1-739;1-441;1-425;1-517, R16A;K17A;R18A;K20A)
# PRC2-AEBP2 [3] = target: T1, PRC2-AEBP2; remark: listed apart in the source
# PRC2-AEBP2 [4] = target: T1, PRC2-AEBP2; remark: listed apart in the source
# Chain of PRC2 core (EZH2-EED-SUZ12-RBBP4) (Q15910 whole entry, chain 1 of 4): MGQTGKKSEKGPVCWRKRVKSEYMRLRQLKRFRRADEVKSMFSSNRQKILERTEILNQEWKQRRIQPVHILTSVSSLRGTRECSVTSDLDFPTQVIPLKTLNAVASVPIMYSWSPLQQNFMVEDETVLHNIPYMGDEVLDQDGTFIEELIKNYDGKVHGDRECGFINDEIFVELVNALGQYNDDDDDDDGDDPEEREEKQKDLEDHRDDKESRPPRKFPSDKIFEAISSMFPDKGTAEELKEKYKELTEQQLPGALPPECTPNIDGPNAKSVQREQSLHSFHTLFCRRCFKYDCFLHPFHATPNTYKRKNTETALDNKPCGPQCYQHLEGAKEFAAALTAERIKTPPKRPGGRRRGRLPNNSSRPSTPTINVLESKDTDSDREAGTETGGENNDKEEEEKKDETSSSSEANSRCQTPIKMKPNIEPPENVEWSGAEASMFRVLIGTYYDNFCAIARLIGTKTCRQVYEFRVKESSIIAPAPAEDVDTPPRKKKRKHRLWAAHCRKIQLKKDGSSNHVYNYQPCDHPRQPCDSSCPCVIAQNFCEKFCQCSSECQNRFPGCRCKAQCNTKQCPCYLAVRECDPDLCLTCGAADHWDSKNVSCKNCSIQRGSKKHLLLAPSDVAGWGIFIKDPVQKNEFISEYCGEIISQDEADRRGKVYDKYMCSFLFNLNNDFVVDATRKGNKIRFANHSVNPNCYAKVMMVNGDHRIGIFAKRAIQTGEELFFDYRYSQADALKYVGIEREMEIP
# Chain of PRC2 core (EZH2-EED-SUZ12-RBBP4) (Q15022 whole entry, chain 2 of 4): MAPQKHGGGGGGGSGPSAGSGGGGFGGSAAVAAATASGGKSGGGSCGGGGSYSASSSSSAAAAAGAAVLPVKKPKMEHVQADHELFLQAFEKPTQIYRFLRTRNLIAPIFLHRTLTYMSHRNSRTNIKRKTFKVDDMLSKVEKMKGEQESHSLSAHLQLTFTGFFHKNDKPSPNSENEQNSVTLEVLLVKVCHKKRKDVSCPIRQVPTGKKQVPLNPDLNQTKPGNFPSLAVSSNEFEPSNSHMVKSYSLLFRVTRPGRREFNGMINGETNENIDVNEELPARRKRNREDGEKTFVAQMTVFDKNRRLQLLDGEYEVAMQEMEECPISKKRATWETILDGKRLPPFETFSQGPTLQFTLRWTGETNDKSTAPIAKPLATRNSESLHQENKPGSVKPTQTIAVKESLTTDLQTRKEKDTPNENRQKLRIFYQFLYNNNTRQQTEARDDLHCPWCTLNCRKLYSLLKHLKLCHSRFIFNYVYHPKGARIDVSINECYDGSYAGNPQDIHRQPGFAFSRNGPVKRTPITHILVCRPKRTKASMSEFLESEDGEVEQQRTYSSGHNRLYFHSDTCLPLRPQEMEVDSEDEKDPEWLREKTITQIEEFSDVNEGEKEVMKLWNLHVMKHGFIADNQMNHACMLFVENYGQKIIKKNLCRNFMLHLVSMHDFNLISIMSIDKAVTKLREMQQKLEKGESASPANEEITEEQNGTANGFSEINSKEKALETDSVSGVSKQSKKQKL
# Chain of PRC2 core (EZH2-EED-SUZ12-RBBP4) (O75530 whole entry, chain 3 of 4): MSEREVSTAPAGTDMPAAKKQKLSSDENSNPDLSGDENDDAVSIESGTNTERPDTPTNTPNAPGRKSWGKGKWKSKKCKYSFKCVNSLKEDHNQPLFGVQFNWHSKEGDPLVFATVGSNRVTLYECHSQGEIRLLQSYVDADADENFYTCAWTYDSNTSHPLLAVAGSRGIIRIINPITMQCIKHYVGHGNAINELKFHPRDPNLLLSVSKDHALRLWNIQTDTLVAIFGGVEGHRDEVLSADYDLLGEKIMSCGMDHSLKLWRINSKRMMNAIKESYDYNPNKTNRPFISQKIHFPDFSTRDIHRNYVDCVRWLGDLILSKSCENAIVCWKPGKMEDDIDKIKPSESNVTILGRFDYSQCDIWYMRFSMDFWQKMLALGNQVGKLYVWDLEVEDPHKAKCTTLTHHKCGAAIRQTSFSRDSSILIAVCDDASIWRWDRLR
# Chain of PRC2 core (EZH2-EED-SUZ12-RBBP4) (Q09028 whole entry, chain 4 of 4): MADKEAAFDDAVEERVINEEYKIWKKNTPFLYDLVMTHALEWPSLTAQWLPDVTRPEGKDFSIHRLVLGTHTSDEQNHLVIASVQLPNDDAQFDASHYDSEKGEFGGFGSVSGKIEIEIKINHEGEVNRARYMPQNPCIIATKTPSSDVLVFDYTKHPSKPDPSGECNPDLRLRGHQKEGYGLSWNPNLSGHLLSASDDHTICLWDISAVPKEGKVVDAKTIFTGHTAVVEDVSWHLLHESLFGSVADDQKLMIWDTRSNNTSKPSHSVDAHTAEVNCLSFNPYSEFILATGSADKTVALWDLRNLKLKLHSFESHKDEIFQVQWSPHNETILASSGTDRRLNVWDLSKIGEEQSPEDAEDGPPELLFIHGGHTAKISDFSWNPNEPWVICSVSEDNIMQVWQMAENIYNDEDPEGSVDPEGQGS
binder,measurement,setting,value
B1,Kd,PRC2-AEBP2 mt5,93.7 ± 6.3 nM
same,Kd,PRC2-AEBP2 mt4,102 ± 4 nM
same,Kd,PRC2-AEBP2 mt1,173 ± 7 nM
same,Kd,PRC2-MTF2-EPOP,40.9 ± 3.9 nM
same,Kd,PRC2-AEBP2 [1],54.6 ± 3.8 nM
same,Kd,PRC2-PHF19,34 ± 1.8 nM
same,Kd,PRC2-MTF2,82.4 ± 9.8 nM
same,Kd,[2],129 ± 6 nM
same,Kd,PRC2-AEBP2 mt2,141 ± 8 nM
same,Kd,PRC2-AEBP2 mt3,124 ± 7 nM
same,Kd,PRC2-AEBP2 [3],19.2 ± 2.7 nM
same,Kd,PRC2-AEBP2 [4],60.5 ± 2.2 nM
